What is called koff is the first-order rate constant of dissociation. A low value points to a long-lived complex. Broadly, the kon is the rate constant with which the complex forms. A lower kon goes with slower complex formation. One may read the Kd as the free concentration of one partner at which half of the binding sites on the other are occupied at equilibrium, for simple one-to-one binding. Read a low Kd as higher affinity.

For experiment [1], the target named is T1, monomeric hActRIIB (human, UniProt Q13705 19-134, limits assumed).
T1 construct: also called ActRIIB MONOMER; ActRIIB monomer
T1 sequence (Q13705 19-134 limits assumed): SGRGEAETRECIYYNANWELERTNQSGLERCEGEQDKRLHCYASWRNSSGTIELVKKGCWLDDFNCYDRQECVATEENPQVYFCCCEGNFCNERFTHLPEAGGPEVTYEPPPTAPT
The experiment can be described thus: SPR (Biacore), 37 C, antibody captured on anti-hFc IgG chip, monomeric ActRIIB injected, 1:1 model. On the procedure:
(§1) Kinetic characterization of J01, K01, L01, M01, N01, and P01 antibodies binding to monomeric and dimeric hActRIIB and hActRIIA was performed using standard BIACORE®-based analysis at 37° C. In brief, antibodies were captured on anti-hFclgG Biacore chips and different concentrations of dimeric and monomeric ActRIIB or ActRIIA were injected in duplicates over the captured antibody and control surface. To obtain kinetic rate constants the data were double referenced and fit to a 1:1 interaction model using BiaEvaluation software (GE Healthcare). The equilibrium binding constant KD was determined by the ratio of binding rate constants kd/kₐ
A general note: SPR reads the build-up and loss of mass on a sensor chip optically.

In experiment [2] the target is T1, monomeric hActRIIB. Put plainly: SPR (Biacore), 37 C, antibody captured on anti-hFc IgG chip, monomeric ActRIIB injected, KD = kd/ka. On the procedure: as §1
Experiment [3] addresses T2, dimeric hActRIIB (human, UniProt Q13705 19-134).
T2 construct: also called ActRIIB DIMER; ActRIIB dimer
The experiment can be described thus: SPR (Biacore), 37 C, antibody captured on anti-hFc IgG chip, dimeric ActRIIB injected, 1:1 model. The method, then: as §1

In experiment [4] the target is T3, dimeric hActRIIA (human, UniProt P27037 20-135).
T3 construct: also called ActRIIA DIMER; ActRIIA dimer
T3 sequence (P27037 20-135): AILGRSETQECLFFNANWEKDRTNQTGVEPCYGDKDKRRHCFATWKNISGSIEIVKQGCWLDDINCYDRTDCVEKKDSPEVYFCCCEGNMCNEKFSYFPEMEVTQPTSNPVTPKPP
Put plainly: SPR (Biacore), 37 C, antibody captured on anti-hFc IgG chip, dimeric ActRIIA injected. The method, then: as §1

Experiment [5] concerns the target T2, dimeric hActRIIB. Put plainly: SPR (Biacore), 37 C, antibody captured on anti-hFc IgG chip, dimeric ActRIIB injected, KD = kd/ka. On the procedure:
as §1

Experiment [6] concerns the target T4, monomeric hActRIIA (human, UniProt P27037 20-135, limits assumed).
T4 construct: also called ActRIIA MONOMER; ActRIIA monomer
The experiment can be described thus: SPR (Biacore), 37 C, antibody captured on anti-hFc IgG chip, monomeric ActRIIA injected, 1:1 model. On the procedure:
as §1

The target in experiment [7] is T3, dimeric hActRIIA. The experiment can be described thus: SPR (Biacore), 37 C, antibody captured on anti-hFc IgG chip, dimeric ActRIIA injected, KD = kd/ka. The method, then: as §1
The target of experiment [8] is T3, dimeric hActRIIA. Put plainly: SPR (Biacore), 37 C, antibody captured on anti-hFc IgG chip, dimeric ActRIIA injected, 1:1 model. On the procedure:
as §1

Experiment [9] has as its target T4, monomeric hActRIIA. The experiment can be described thus: SPR (Biacore), 37 C, antibody captured on anti-hFc IgG chip, monomeric ActRIIA injected, KD = kd/ka. On the procedure: as §1

T2 sequence (Q13705 19-134): as the sequence (Q13705 19-134 limits assumed) above
T4 sequence (P27037 20-135 limits assumed): as the sequence (P27037 20-135) above

B1: M01 (antibody, V domains shown)
VH: EVQLLESGGGLVQPGGSLRLSCAASGFTFGSYGMTWVRQAPGKGLEWVSVISGSGGGTYYADSVKGRFTISRDNSKNTLYLQMNSLRAEDTAVYYCAKGPRVVGMDVWGQGTTVTVSS
VL: DIQMTQSPSSVSASVGDRVTITCRASQGISSWLAWYQQKPGKAPKLLIYAASSLQSGVPSRFSGSGSGTDYTLTISSLQPEDFATYYCQQVFSYPLTFGGGTKVEIK
notes: Optimized human IgG; It was captured through its Fc on an anti-hFc IgG chip; also called M01 antibody; mAB M01
Turning to B1, the values for the koff in [1] and in experiment [3] were 8.72e-05 s⁻¹ and 3.24e-05 s⁻¹, respectively. Further, the kon in experiment [1] is 1.16e+06 M⁻¹ s⁻¹; in [3], 304000 M⁻¹ s⁻¹. The Kd was 0.0755 nM in experiment [2] and 0.107 nM in experiment [5]. Moreover, the binding result in experiment [4] is reported as “no binding”.

B2: J01 (antibody, V domains shown)
VH: QVQLVQSGAEVKKPGASVKVSCKASGYTFTSYRMHWVRQAPGQGLEWMGFIVPSGGSTSYAQKFQGRVTMTRDTSTSTVYMELSSLRSEDTAVYYCARVSRYAPEPMDVWGQGTTVTVSS
VL: DIQMTQSPSSVSASVGDRVTITCRASQGISRWLAWYQQKPGKAPKLLIYAASSLQSGVPSRFSGSGSGTDFTLTISSLQPEDFATYYCQQAFSHPWTFGGGTKVEIK
notes: also called J01 antibody; mAB J01
For the molecule B2, the koff in experiment [6] amounted to 0.00259 s⁻¹; in experiment [1], 0.00022 s⁻¹; in [3] it was 1.69e-05 s⁻¹; in [8] it was 9.31e-05 s⁻¹. The kon in experiment [6] turned out to be 828000 M⁻¹ s⁻¹; in experiment [1] it was 1.05e+06 M⁻¹ s⁻¹; in [3] it was 452000 M⁻¹ s⁻¹; in experiment [8] it was 484000 M⁻¹ s⁻¹. For the same molecule, the Kd in [2] was 0.209 nM; in [7], 0.192 nM; in [5], 0.0374 nM; in experiment [9] it was 3.13 nM.

B3: P01 (antibody, V domains shown)
VH: EVQLLESGGGLVQPGGSLRLSCAASGFTFSSYAMSWVRQAPGKGLEWVSAISGSGGSTSYADSVKGRFTISRDNSKNTLYLQMNSLRAEDTAVYYCARLPQYSRPFDYWGQGTLVTVSS
VL: DIQMTQSPSSVSASVGDRVTITCRASQGISSWLAWYQQKPGKAPKLLIYAASSLQSGVPSRFSGSGSGTDFTLTISSLQPEDFATYYCQQGHSFPLTFGGGTKVEIK
notes: Naive human IgG; also called P01 antibody; mAB P01
Consider B3, for which, in experiment [3], the koff was determined as 0.0145 s⁻¹ and the kon is 388000 M⁻¹ s⁻¹. Besides, the binding result in experiment [4] was “no binding”. In addition, in experiment [5], the equilibrium dissociation constant (Kd) was 37.4 nM.

B4: K01 (antibody, human IgG1, kappa, V domains shown)
VH: QLQLQESGPGLVKPSETLSLTCTVSGGSISSSSYYWGWIRQPPGKGLEWIGSISYSGSTYYNPSLKSRVTISVDTSKNQFSLKLSSVTAADTAVYYCARDSLRYGMDVWGQGTTVTVSS
VL: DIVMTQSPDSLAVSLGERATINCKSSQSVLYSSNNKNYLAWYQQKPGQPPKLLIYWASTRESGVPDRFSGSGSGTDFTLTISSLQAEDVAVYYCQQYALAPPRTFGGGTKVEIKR
notes: Naive human IgG from a yeast library; It was captured on an anti-hFc IgG chip in the SPR assay; also called K01 antibody; mAB K01
As for B4, the off-rate constant (koff) in [1] is 0.00237 s⁻¹; in experiment [3], 0.000683 s⁻¹. The kon in experiment [1] was 148000 M⁻¹ s⁻¹; in experiment [3] it was 104000 M⁻¹ s⁻¹. In addition, the Kd in [2] worked out at 16 nM; in [5] it was 6.57 nM. Further, the binding result in experiment [4] was “no binding”.

B5: N01 (antibody, human IgG1, kappa, V domains shown)
VH: QLQLQESGPGLVKPSETLSLTCTVSGGSISSSSYYWGWIRQPPGKGLEWIGSISYSGSTYYNPSLKSRVTISVDTSKNQFSLKLSSVTAADTAVYYCARDSLRYGMDVWGQGTTVTVSS
VL: DIQMTQSPSTLSASVGDRVTITCRASQSIGSWLAWYQQKPGKAPKLLIYKASSLESGVPSRFSGSGSGTEFTLTISSLQPDDFATYYCQVYGSYSPRTFGGGTKVEIKR
notes: also called N01 antibody; mAB N01
For B5, the koff in experiment [1] was 0.00769 s⁻¹; in experiment [3], 0.000335 s⁻¹. Besides, the kon in experiment [1] stood at 416000 M⁻¹ s⁻¹; in experiment [3], 182000 M⁻¹ s⁻¹. Also, the results for the Kd in [2] and in experiment [5] were 18.5 nM and 1.84 nM, respectively. Besides, the binding result in [4] is “no binding”.

B6: L01 (antibody, human IgG1, kappa, V domains shown)
VH: QLQLQESGPGLVKPSETLSLTCTVSGGSISSSSYYWGWIRQPPGKGLEWIGSISYSGSTYYNPSLKSRVTISVDTSKNQFSLKLSSVTAADTAVYYCARDSLRYGMDVWGQGTTVTVSS
VL: EIVMTQSPATLSVSPGERATLSCRASQSVSSNLAWYQQKPGQAPRLLIYGASTRATGIPARFSGSGSGTEFTLTISSLQSEDFAVYYCQVYNVWPRTFGGGTKVEIKR
notes: Naive human IgG; also called L01 antibody; mAB L01
As for B6, the koff was 0.0179 s⁻¹ in [1] and 0.000365 s⁻¹ in experiment [3]. The kon in [1] was determined as 921000 M⁻¹ s⁻¹; in experiment [3], 212000 M⁻¹ s⁻¹. In addition, the Kd in experiment [2] is 19.5 nM; in [5], 1.72 nM. Besides, the binding result in [4] is on record as “no binding”.

Source of the values: patent US20260132207A1 (ACCELERON PHARMA, published 2026).
